Source: article PMC7763088, “Impact of Different Lipid Ligands on the Stability and IgE-Binding Capacity of the Lentil Allergen Len c 3” (Biomolecules, 2020)
Read-outs that look alike come from different tables or passages of the source.

Key:
rLen c 3 [1] = molecular target: T1, rLen c 3 (Lens culinaris, UniProt A0AT29); test: TNS displacement lipid binding assay; set-up: species or system lentil; conditions: for IC50: 25 °C, 4 μM TNS, 4 μM rLen c 3, read-out: IC50 (TNS displacement)
T1 construct: with the formation of the large fragment 1–80 and the protein without C-terminal Phe93; His8-TrxL (octahistidine-thioredoxin carrier) (N, cleaved yes); made in house; host or cells: Escherichia coli BL-21 (DE3)
T1 sequence (A0AT29 26-118): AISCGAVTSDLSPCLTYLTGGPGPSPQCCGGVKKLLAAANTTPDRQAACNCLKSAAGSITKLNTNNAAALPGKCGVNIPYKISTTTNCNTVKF
Procedure: The ability of rLen c 3 to bind lipids was assayed by monitoring the displacement of the fluorescent probe TNS. Fluorescence intensity was measured at 25 °C with a F-2710 spectrofluorimeter (Hitachi, Tokyo, Japan), using a […] slit width for both excitation (λ = 320 nm) and emission (λ = 437 nm) and the measurement taken for no longer than 1.5–2 s. After equilibrating TNS (4 μM) in 10 mM phosphate buffer, pH 7.4, or 150 mM sodium chloride, pH 2.5, for 2 min with gentle mixing, the 2 mM of competing ligand was titrated into the 2 mL of 4 μM rLen c 3 solution in 1 μL aliquots. The resulting data were fitted by using a sigmoidal curve-fitting in GraphPad Prism from which the concentration able to displace 50% of the TNS (IC50) was calculated. The dependence of the ligand binding on temperature was performed at 20, 40, 60, 90, and 20 °C, after cooling down as previously described. Temperature was checked with a temperature probe in the cuvette. Each experiment was performed in triplicate, independently.

rLen c 3 [2] = molecular target: T1, rLen c 3; test: Effect of lipid ligands on secondary structure and thermostability of rLen c 3 (CD spectroscopy); assay type: physicochemical, lentil; conditions: pH 7.4, ligand 1 mM
Procedure: (§1) Circular dichroism spectra were recorded at different temperatures, using a J-810 spectropolarimeter (Jasco, Hachioji, Tokyo, Japan) in a 0.1 cm path length quartz cell (Hellma GmbH & Co. KG, Mullheim, Germany) in the 190–250 nm range, and 0.2, using solutions of rLen c 3 in 10 mM phosphate buffer, pH 7.4, or 150 mM sodium chloride, pH 2.5, simulated gastric fluid, at a concentration of 17 µM. Fatty acids or lysolipids were added at a final concentration of 1 mM. Each experiment was performed twice, independently.

rLen c 3 [3] = molecular target: T1, rLen c 3; test: Effect of lipid ligands on gastrointestinal digestion of rLen c 3; assay type: in vitro ADME, lentil
Procedure: (§2) Simulation of gastrointestinal digestion in vitro was performed as described in [15]. Briefly, gastric digestion was performed for 2 h, using 50 ng of pepsin (p) (Sigma) per 1 μg of rLen c 3 in 0.1 M HCl, pH 2.0 (final protein concentration 0.05 mM). For duodenal digestion, pH of the mixture resulting from gastric digestion was adjusted to 8.0 by addition of ammonium bicarbonate. The obtained mixture was incubated for 24 h at 37 °C with 2.5 ng of trypsin (t) (Promega, Madison, WI, USA) and 10 ng of α-chymotrypsin (ch) (Sigma) per 1 μg of the substrate. Degree of proteolysis was monitored by sodium dodecyl sulfate polyacrylamide gel electrophoresis (SDS-PAGE) under reducing conditions and reversed-phase high-performance liquid chromatography (RP-HPLC) on Luna C18 column (5 μm, 250 × 4.6 mm; Phenomenex, Torrance, CA, USA) at a flow rate of 0.5 mL/min, using a gradient of acetonitrile concentration from 5 to 65% for 45 min in 0.1% trifluoroacetic acid (TFA). Gel analysis was performed, using a densitometer. Electroblotting and subsequent N-terminal protein sequencing were performed as described. The protein was preheated at 100 °C for 30 min to study the effect of temperature on allergen stability. rLen c 3 was preloaded with various lipid ligands (LTP to lipid molar ratio 1:4) for 10 min, in order to investigate their effects on allergen resistance to proteolytic digest. As a control of the influence of lipid ligands on the work of proteolytic enzymes, the same reactions were carried out, using bovine α-casein (Sigma) as a substrate. Some independent experiments were performed in each case.

rLen c 3 [4] = molecular target: T1, rLen c 3; test: ELISA of IgE binding to rLen c 3 preincubated with lipid ligands; set-up: species or system lentil; conditions: preincubation with 60 μM ligand, sera with 10 μM ligand; sera from 10 patients; p > 0.1
Procedure: To study the effects of lipid ligands on IgE binding capacity of allergen, rLen c 3 was covalently bound to Nunc Immobilizer Amino surface plates (Thermo Scientific, Waltham, MA, USA), according to peptide coupling protocol. rLen c 3 solution (100 μg/mL) in 100 mM sodium carbonate, pH 9.6, was added to the wells; after that, the plates were incubated at 25 °C for 2 h. Then 10 mM ethanolamine at the same buffer was used for the plates post-coupling at 25 °C for 1 h. Pre-incubation with PBS or lipid ligand solutions in PBS at concentration of 60 μM was performed overnight at 4 °C. After that, the plates were incubated with selected sera in 1:4 dilution, overnight, at 4 °C, with the absence or presence of 10 μM lipid ligands, due to the reversibility of Len c 3-ligand complexes. Subsequent steps of ELISA were carried out as described above. This experiment was performed twice, independently.

[5] = Circular dichroism spectroscopy of rLen c 3 (pH and heat stability, secondary structure); assay type: physicochemical; conditions: for random (secondary structure estimation from Far-UV CD spectra) / turn (secondary structure estimation from Far-UV CD spectra) / α-helix (secondary structure estimation from Far-UV CD spectra) / β-sheet (secondary structure estimation from Far-UV CD spectra): lipid 1 mM where added
Procedure: as §1

pepsin = test: In vitro gastric digestion (SDS-PAGE); assay type: in vitro ADME; conditions: pepsin, pH 2.0, 2 h
Procedure: as §2, with “As a control of the influence of lipid ligands on the work of proteolytic enzymes, the same reactions were carried out, using bovine α-casein (Sigma) as a substrate. Some independent experiments were performed in each case.” left out

[6] = tested on: trypsin and α-chymotrypsin; test: In vitro duodenal digestion after gastric digestion (SDS-PAGE densitometry); assay type: in vitro ADME
Procedure: as §2

[7] = tested on: specific IgE in sera of allergic patients; test: ELISA of sIgE binding to intact, heated or digested rLen c 3; set-up: species or system human
Procedure: Sera from allergic patients (n = 100) with food and pollen allergy were obtained from the Clinical Diagnostic Center of G.N. Gabrichevsky Research Institute for Epidemiology and Microbiology. The work with human sera was approved by the local ethical committees of this Institute (FS-99-01-009026, Moscow, Russia). The amount of specific IgE (sIgE) to allergen extracts in the patient sera was determined by using RIDA qLine Allergy Panel 1-4 (R-Biopharm, Pfungstadt, Germany). Screening of sera containing sIgE to peach Pru p 3 and Len c 3 was performed by ELISA. For that, plate wells (Corning Incorporated, Corning, NY, USA) were coated with recombinant allergen (0.5 μg/well) in 0.01 M phosphate buffered saline (PBS), pH 7.4, for 1 h, at 37 °C; saturated with 2% bovine serum albumin (SERVA, Heidelberg, Germany) in PBS buffer for 1 h, at 37 °C; and then incubated with the sera of allergic patients (1:4 dilution), for 2 h, at 37 °C. Specific IgE binding was detected by using peroxidase-conjugated anti-human IgE from goat (Sigma) (1:2000 dilution), and 3,3′,5,5′-tetramethylbenzidine (TMB) liquid substrate system for ELISA (Sigma). The enzymatic reaction was stopped after 30 min by 2 N H2SO4 and absorbance values were determined at 450 nm. Moreover, 0.01 M PBS with 0.05% Tween-20 was used as a washing solution on each step. For sIgE binding experiments with the intact or heated (at 100 °C for 30 min) or digested (gastric and subsequent duodenal digestion for 2 h) rLen c 3, patient sera containing sIgE were selected (Table S3). Intact and treated rLen c 3 samples were coated in wells of 96-well plates (0.5 μg/well), and ELISA was performed as described above. Sera samples from non-allergic individuals were used as a negative control.

[8] = 20 °C end (after cooling down from 98.5 °C), pH 7.4

CCCCCCCCCCCCCCCC(=O)OC[C@@H](O)COP(=O)(O)OCC(O)CO (stereo partly drawn) [LPPG, lyso-palmitoyl phosphatidylglycerol]
IC50 (rLen c 3 [1]; 10 mM phosphate buffer, pH 7.4): 4.3 ± 0.2 µM
IC50 (rLen c 3 [1]; 150 mM sodium chloride, pH 2.5): 4.3 ± 0.03 µM
Change of rLen c 3 affinity for the ligand at acidic pH (rLen c 3 [1]; pH 2.5 compared with pH 7.4): remained unchanged
Ability of rLen c 3 to bind the ligand after heating and cooling down (rLen c 3 [1]; pH 7.4, heated from 20 to 90 °C, then cooled down to 20 °C): almost completely restored
Recovery of rLen c 3 structure after cooling down in the presence of ligand (rLen c 3 [2]; cooling down to 20 °C after 98.5 °C): complete recovery of the native conformation
Effect of ligand on rLen c 3 thermostability (resistance to thermal denaturation) (rLen c 3 [2]; heating up to 98.5 °C): most pronounced effect
Degradation of rLen c 3 in the presence of ligand (rLen c 3 [3]; 24 h of duodenal digestion, LTP to lipid molar ratio 1:4): ~ 55%
Effect of protein preheating before digestion in the presence of ligand on rate of allergen degradation (rLen c 3 [3]; after 4 and 24 h, effect more pronounced with LPPC): slightly increased
Effect of ligand on rLen c 3 degradation rate (proteolytic digestion) (rLen c 3 [3]; gastric then duodenal digestion, LTP to lipid molar ratio 1:4): more pronounced
Effect of ligand on IgE binding capacity of rLen c 3 (rLen c 3 [4]): small increase

rLen c 3: recombinant lentil allergen Len c 3, a lipid transfer protein, overexpressed in Escherichia coli
random (secondary structure estimation from Far-UV CD spectra) [5, 8]: 34.9%
turn (secondary structure estimation from Far-UV CD spectra) [5, 8]: 21.8%
α-helix (secondary structure estimation from Far-UV CD spectra) [5, 8]: 5.6%
β-sheet (secondary structure estimation from Far-UV CD spectra) [5, 8]: 37.7%
random (secondary structure estimation from Far-UV CD spectra) ([5]; 20 °C, pH 7.4): 30.3%
α-helix (secondary structure estimation from Far-UV CD spectra) ([5]; 20 °C, pH 7.4): 28.4%
β-sheet (secondary structure estimation from Far-UV CD spectra) ([5]; 20 °C, pH 7.4): 19.1%
Protein folding state on heating ([5]; 98.5 °C, pH 7.4): almost completely unfolded
random (secondary structure estimation from Far-UV CD spectra) ([5]; 98.5 °C, pH 7.4): 33.9%
turn (secondary structure estimation from Far-UV CD spectra) ([5]; 98.5 °C, pH 7.4): 22.0%
α-helix (secondary structure estimation from Far-UV CD spectra) ([5]; 98.5 °C, pH 7.4): 6.6%
β-sheet (secondary structure estimation from Far-UV CD spectra) ([5]; 98.5 °C, pH 7.4): 37.4%
Recovery of CD spectrum after cooling down ([5]; cooled down to 20 °C after 98.5 °C, pH 7.4): not recovered
CD spectrum at acidic pH mimicking gastric juice ([5]; pH 2.5 vs pH 7.4, 20 °C): remains almost unchanged
Temperature required for allergen denaturation ([5]; pH 7.4, also shown in ref 17): above 80 °C
Stability to gastric digestion (pepsin): remarkable stability
Intact protein cleaved (densitometric gel analysis) ([6]; 30 min of duodenal digestion after 2 h gastric digestion): more than 65%
Intact protein cleaved (densitometric gel analysis) ([6]; 2 h of duodenal digestion after 2 h gastric digestion): > 85%
rLen c 3 degradation ([6]; 24 h of duodenal digestion): 100%
Effect of protein preheating on degradation ([6]; preheating at 100 °C for 30 min before digestion): slightly increased an efficiency of the allergen degradation
IgE-binding capacity after heating ([7]; 100 °C for 30 min, vs intact rLen c 3, patient sera 1:4): significantly (p < 0.001) reduced
IgE-binding in rPru p 3 IgE+ sera ([7]; all rPru p 3 IgE+ sera, compared with rPru p 3): lower values than for rPru p 3
IgE-binding capacity after proteolytic digestion ([7]; gastric and subsequent duodenal digestion for 2 h, vs intact rLen c 3, patient sera 1:4): significantly (p < 0.001) reduced
